Substrate in the data set: O=C(/C=C/c1ccc(O)c(O)c1)O[C@@H]1CC(C(=O)O)=C[C@@H](O)[C@H]1O
The experiment in a line: HPLC-MS of caffeic acid formed, Michaelis-Menten fit. The data set is classed as biochemical, Larix kaempferi. The note with it: 100 mM NaPO4 buffer pH 6.0, 500 μM dithiothreitol, 0–320 μM substrate, 1 μg enzyme in 100 μL, temperature of kinetics not given.

Experimental findings from article PMC6929169, “Functional Characteristics of Caffeoyl Shikimate Esterase in Larix Kaempferi and Monolignol Biosynthesis in Gymnosperms” (International Journal of Molecular Sciences, 2019) are described below.

B1: LkCSE (Larix kaempferi) (protein)
chain: MSAVEKPAAPPNFWGEMPEEEYYASQGVKNHQERFETPHGILFTQSWIPIEGPVKGIVCMTHGYGSDTGWLFQKISITYAQWGYAVFGADLLGHGRSDGLRCYMGDMEKIAAASLFFFKAMRDSEPYKGLPAFLFGESMGGATTLLMYFQDPDGWSGLIFSAPLFVMPEPMKPSWWRLTAYGLLFGLADTWAVMPDNKMVKKAIKDPEKLKIIASNPRRYTGPPRVGTMRELCRICAFFQENFEKVTIPFLTCHGTSDEVTAPQSSTDLYEKAKSEDKTLKLYDDMYHSLIQGEPDENANQVLADMREWLDARASRTSS
In general, Km refers to the substrate concentration at which the rate is half of its maximum. Regarding B1, the Michaelis-Menten constant (Km) amounted to 82.08 µM.
